Experimental data from publication doi:10.1101/2022.09.28.508705.

Tests used:
Experiment in all cases: crystal structure
[1] = molecular target: mVSG531 N-terminal domain (T. brucei brucei, strain Lister 427)
[2] = molecular target: mVSG397 N-terminal domain (T. brucei brucei, strain Lister 427)
[3] = molecular target: mVSG1954 N-terminal domain (T. brucei brucei, strain Lister 427)

Question: Which stoichiometry N [1] does the source give for “mVSG531 N-terminal domain (domain or fragment)” here?
Answer: Its stoichiometry N is 2.

Question: For “mVSG397 N-terminal domain (domain or fragment)”, which stoichiometry N [2] is on record?
Answer: Its stoichiometry N is 2.

Question: “mVSG1954 N-terminal domain (domain or fragment)” was tested. Which stoichiometry N [3] did it give?
Answer: The stoichiometry N was 3.
